The values below come from patent US20100119588A1.

The first experiment deals with hemagglutinin H1 on influenza virus A/Puerto Rico/8/34 strain (H1N1) (influenza virus A/Puerto Rico/8/34 (H1N1)) (UniProt P03452). As to the kind of experiment: cell-based or functional assay.
On to C18-s2(1-3) (C18-ARL peptide amide), for which the IC50(µM), plaque assay, infection of MDCK cells was more than 100 µM.
As for C18-s2(3-8) (C18-LPRTMV peptide amide), the IC50(µM), plaque assay, infection of MDCK cells was more than 100 µM.
C18-s2(1-5) (C18-ARLPR peptide amide): the IC50(µM), plaque assay, infection of MDCK cells came to 3.1 µM.
Take C18-s2(1-2) (C18-AR peptide amide): the IC50(µM), plaque assay, infection of MDCK cells was more than 100 µM.
“C18-s2(r1-8) (C18-VMTRPLRA peptide amide)”: the IC50(µM), plaque assay, infection of MDCK cells was 93 µM.
C18-s2(4-8) (C18-PRTMV peptide amide) had an IC50(µM), plaque assay, infection of MDCK cells of more than 100 µM.
Take C18-s2(1-7) (C18-ARLPRTM peptide amide): the IC50(µM), plaque assay, infection of MDCK cells came to 7.1 µM.
C18-s2(1-6) (C18-ARLPRT peptide amide) registered an IC50(µM), plaque assay, infection of MDCK cells of 3.5 µM.
On the same count and under the same terms, then “C18-s2(5-11) (C18-RTMVHPK peptide amide)”, with 11 µM; and “C18-s2(8-15) (C18-VHPKPAQP peptide amide)”, with 59 µM.
As to C18-s2(2-8) (C18-RLPRTMV peptide amide), the IC50(µM), plaque assay, infection of MDCK cells amounted to 9.2 µM.
On the same count and under the same terms, then C18-s2(1-4) (C18-ARLP peptide amide), with 0.9 µM.

For a further experiment the target is unchanged. As to the kind of experiment: cell-based or functional assay. This is another data set of the same source.
Consider “C18-s2(1-8) (C18-ARLPRTMV peptide amide)”, for which the IC50(µM), plaque assay, infection of MDCK cells is 2.4 µM.
Still for that read-out and setting: then C18-s2(1-5) (C18-ARLPR peptide amide), with 0.35 µM; and C18-s2(r1-5) (C18-RPLRA peptide amide), with 0.55 µM.
On the same count and under the same terms, then C18-s2(r1-4) (C18-PLRA peptide amide), with 0.41 µM.
